Results published in patent EP4722253A1 (dated 2026).
Where a chain is given by its changes, count along the chain named.

B1: Q-SBL-111 (bispecific antibody, human IgG1, kappa)
heavy 1: not shown
heavy 2: EVQLVESGGGLVQPGGSLRLSCAASGYTFTNYGMNWVRQAPGKGLEWVGWINTYTGEPTYAADFKRRFTFSLDTSKSTAYLQMNSLRAEDTAVYYCAKYPHYYGSSHWYFDVWGQGTLVTVSSASTKGPSVFPLAPSSKSTSGGTAALGCLVKDYFPEPVTVSWNSGALTSGVHTFPAVLQSSGLYSLSSVVTVPSSSLGTQTYICNVNHKPSNTKVDKKVEPKSCDKTHTCPPCPAPELLGGPSVFLFPPKPKDTLMISRTPEVTCVVVDVSHEDPEVKFNWYVDGVEVHNAKTKPREEQYNSTYRVVSVLTVLHQDWLNGKEYKCKVSNKALPAPIEKTISKAKGQPREPQVCTLPPSRREMTKNQVSLWCLVKGFYPSDIAVEWESNGQPENNYKTTPPVLDSDGSFFLYSKLTVDKSRWQQGNVFSCSVMHEALHNHYTQKSLSLSPGK
light 1: not shown
light 2: not shown
notes: copies: 1 + 1 + 1 + 1
B2: Q-SBL-115 (bispecific antibody, human IgG1, kappa)
heavy 1: not shown
heavy 2: B1 heavy 2 with R362E, E363R
light 1: not shown
light 2: not shown
notes: copies: 1 + 1 + 1 + 1
B3: Q-SBL-116 (bispecific antibody, human IgG1, kappa)
heavy 1: not shown
heavy 2: B1 heavy 2 with R362K
light 1: not shown
light 2: not shown
notes: copies: 1 + 1 + 1 + 1
B4: Q-SBL-127 (bispecific antibody, human IgG1, kappa)
heavy 1: not shown
heavy 2: B1 heavy 2 with R362E, D405F
light 1: not shown
light 2: not shown
notes: copies: 1 + 1 + 1 + 1
B5: Q-SBL-130 (bispecific antibody, human IgG1, kappa)
heavy 1: not shown
heavy 2: B1 heavy 2 with R362E, D405F
light 1: not shown
light 2: not shown
notes: copies: 1 + 1 + 1 + 1
B6: Q-SBL-131 (bispecific antibody, human IgG1, kappa)
heavy 1: not shown
heavy 2: B1 heavy 2 with R362E, D405F
light 1: not shown
light 2: not shown
notes: copies: 1 + 1 + 1 + 1
B7: Q-SBL-137 (bispecific antibody, human IgG1, kappa)
heavy 1: not shown
heavy 2: B1 heavy 2 with R362E, K415S
light 1: not shown
light 2: not shown
notes: copies: 1 + 1 + 1 + 1

Molecular target: T1, FcRn (UniProt P55899 24-297)
T1 construct: also called neonatal Fc receptor
T1 sequence (P55899 24-297 limits assumed, form in doubt): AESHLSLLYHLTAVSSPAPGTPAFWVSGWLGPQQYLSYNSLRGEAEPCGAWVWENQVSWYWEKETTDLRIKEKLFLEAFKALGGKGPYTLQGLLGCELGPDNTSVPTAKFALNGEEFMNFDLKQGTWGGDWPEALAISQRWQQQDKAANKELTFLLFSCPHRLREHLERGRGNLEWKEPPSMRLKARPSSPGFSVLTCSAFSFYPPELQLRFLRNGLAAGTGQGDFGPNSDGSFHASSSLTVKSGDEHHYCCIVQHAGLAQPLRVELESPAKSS
Assay: BLI (Octet HTX), antibody on FAB2G biosensor, FcRn in solution, pH 6.0

B1 and B2 are the same in Kd: 690 nM for the first, 690 nM for the second.

B3 and B4 are within 1.5-fold of each other in Kd: 650 nM for the first, 750 nM for the second.

B5 and B6 are within 1.5-fold of each other in Kd: 740 nM for the first, 670 nM for the second.

Binder B7 has a Kd of 580 nM.

Molecular target: T2, C1q, complement component 1q (UniProt P02745 23-245; P02746 28-253; P02747 29-245)
T2 construct: also called Clq
T2 sequence (P02745 23-245 limits assumed, chain 1 of 3): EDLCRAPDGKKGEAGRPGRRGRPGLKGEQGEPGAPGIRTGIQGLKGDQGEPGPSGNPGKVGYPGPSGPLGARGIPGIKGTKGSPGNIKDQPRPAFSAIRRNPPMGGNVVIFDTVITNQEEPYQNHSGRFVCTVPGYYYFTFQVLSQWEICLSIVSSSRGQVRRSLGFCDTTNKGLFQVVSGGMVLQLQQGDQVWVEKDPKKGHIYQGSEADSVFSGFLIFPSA
T2 sequence (P02746 28-253 limits assumed, chain 2 of 3): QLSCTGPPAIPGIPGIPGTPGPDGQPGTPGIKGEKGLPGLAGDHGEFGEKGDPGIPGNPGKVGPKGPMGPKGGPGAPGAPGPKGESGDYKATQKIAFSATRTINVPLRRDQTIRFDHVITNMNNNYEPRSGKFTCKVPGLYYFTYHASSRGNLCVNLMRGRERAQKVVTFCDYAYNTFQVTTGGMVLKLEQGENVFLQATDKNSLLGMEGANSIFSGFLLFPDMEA
T2 sequence (P02747 29-245 limits assumed, chain 3 of 3): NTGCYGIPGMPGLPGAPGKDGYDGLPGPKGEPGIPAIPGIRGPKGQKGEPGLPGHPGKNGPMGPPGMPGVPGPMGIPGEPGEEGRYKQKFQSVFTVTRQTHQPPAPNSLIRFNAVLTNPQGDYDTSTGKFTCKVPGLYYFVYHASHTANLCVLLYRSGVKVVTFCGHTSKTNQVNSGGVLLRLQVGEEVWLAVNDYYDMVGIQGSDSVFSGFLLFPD
Assay: BLI (Octet HTX), antibody on FAB2G biosensor, C1q in solution

Going from B1 to B2, the Kd falls from 30 nM to 18 nM (1.7-fold).

First: B3
Second: B4
The Kd of the first is 1.8-fold higher: 33 nM for the first, 18 nM for the second.

B5 and B6 are within 1.5-fold of each other in Kd: 17 nM for the first, 16 nM for the second.

With B7 the Kd was 24 nM.

Molecular target: T3, FcγRIIa (UniProt P12318 34-217)
T3 sequence (looked up): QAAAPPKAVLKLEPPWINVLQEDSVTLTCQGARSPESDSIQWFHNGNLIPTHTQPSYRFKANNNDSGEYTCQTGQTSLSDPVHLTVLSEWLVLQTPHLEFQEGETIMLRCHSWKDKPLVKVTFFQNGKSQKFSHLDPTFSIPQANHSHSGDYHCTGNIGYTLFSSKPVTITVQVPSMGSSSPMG
Assay: BLI (Octet HTX), antibody on FAB2G biosensor, FcγRIIa in solution

B1 and B2 are within 1.5-fold of each other in Kd: 2040 nM for the first, 1970 nM for the second.

B3 and B4 are within 1.5-fold of each other in Kd: 2340 nM for the first, 1630 nM for the second.

B5 and B6 are within 1.5-fold of each other in Kd: 1720 nM for the first, 1620 nM for the second.

B7 gave a Kd of 2120 nM.

Molecular target: T4, FcγRIIIa (UniProt P08637 17-208)
T4 construct: also called FcyRIIIa
T4 sequence (P08637 17-208 limits assumed): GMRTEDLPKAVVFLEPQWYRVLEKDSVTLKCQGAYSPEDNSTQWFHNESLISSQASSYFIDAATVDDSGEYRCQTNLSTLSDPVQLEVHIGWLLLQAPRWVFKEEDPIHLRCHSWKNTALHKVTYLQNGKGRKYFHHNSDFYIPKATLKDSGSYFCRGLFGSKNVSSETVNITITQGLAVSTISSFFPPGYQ
Assay: BLI (Octet HTX), antibody on FAB2G biosensor, FcγRIIIa in solution

Compared with B1, B2 is 1.7-fold lower in Kd: 490 nM for the first, 290 nM for the second.

First: B3
Second: B4
The Kd of the first is 1.6-fold higher: 370 nM for the first, 230 nM for the second.

B5 and B6 are within 1.5-fold of each other in Kd: 290 nM for the first, 330 nM for the second.

Work on B7 yielded a Kd of 380 nM.
